Several values for one entry are separate records, joined by “and”; a condition that tells them apart may be missing. Equal entries are not always repeated.
Legend:
[1] = biological target: SIY-loaded H-2 K^b on T2 K^b cells (murine) (UniProt P01901); experiment: cell-based or functional assay
[2] = biological target: SIY-loaded H-2 K^bm3 on T2 K^bm3 cells (murine); experiment: cell-based or functional assay
[3] = biological target: dEV-8-loaded H-2 K^bm3 on T2 K^bm3 cells (murine); experiment: cell-based or functional assay
[4] = biological target: p2Ca-loaded H-2 L^d (murine) (UniProt P01897); experiment: cell-based or functional assay
[5] = biological target: unloaded H-2 L^d on RMA-S L^d cells (no peptide added) (murine) (UniProt P01897); experiment: direct flow cytometry on RMA-S L^d cells without added peptide
[6] = biological target: H-2 L^d on RENCA cells, naturally loaded (murine) (UniProt P01897); experiment: flow cytometry on RENCA cells cultured with 5-50 units/ml γ-IFN
[7] = biological target: SIY-loaded H-2 K^bm3 on T2 K^bm3 cells (murine); experiment: flow cytometry on peptide-loaded T2 K^bm3 cells
[8] = biological target: QL9-loaded H-2 L^d (murine) (UniProt P01897); experiment: direct flow cytometry on peptide-loaded RMAS-L^d cells
[9] = biological target: QL9-loaded H-2 L^d (murine) (UniProt P01897); experiment: flow cytometry on cells loaded with a titration of peptide; lower end of the titration
[10] = biological target: p2Ca-loaded H-2 L^d (murine) (UniProt P01897); experiment: as above
[11] = biological target: p2Ca-loaded H-2 L^d (murine) (UniProt P01897); experiment: flow cytometry on cells loaded with a titration of peptide; upper end of the titration
[12] = biological target: QL9-loaded H-2 L^d (murine) (UniProt P01897); experiment: direct flow cytometry on peptide-loaded RMA-S L^d cells, serial dilutions, detected with H57-FITC

QL9-loaded H-2 L^d (murine), sequence (P01897 25-362): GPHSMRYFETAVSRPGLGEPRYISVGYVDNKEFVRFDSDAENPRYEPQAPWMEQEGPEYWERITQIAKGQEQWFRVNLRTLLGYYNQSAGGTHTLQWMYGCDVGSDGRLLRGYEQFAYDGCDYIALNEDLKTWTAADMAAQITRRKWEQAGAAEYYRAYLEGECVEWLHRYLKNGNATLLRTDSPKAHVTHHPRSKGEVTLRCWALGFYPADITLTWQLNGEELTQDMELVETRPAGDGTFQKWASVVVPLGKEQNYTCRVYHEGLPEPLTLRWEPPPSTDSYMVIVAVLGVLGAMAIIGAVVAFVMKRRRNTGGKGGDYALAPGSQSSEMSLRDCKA
p2Ca-loaded H-2 L^d (murine), sequence (P01897 25-362): as above
soluble divalent 2C TCR/Ig, sequence (A2KF29 whole entry, looked up, tested part not stated): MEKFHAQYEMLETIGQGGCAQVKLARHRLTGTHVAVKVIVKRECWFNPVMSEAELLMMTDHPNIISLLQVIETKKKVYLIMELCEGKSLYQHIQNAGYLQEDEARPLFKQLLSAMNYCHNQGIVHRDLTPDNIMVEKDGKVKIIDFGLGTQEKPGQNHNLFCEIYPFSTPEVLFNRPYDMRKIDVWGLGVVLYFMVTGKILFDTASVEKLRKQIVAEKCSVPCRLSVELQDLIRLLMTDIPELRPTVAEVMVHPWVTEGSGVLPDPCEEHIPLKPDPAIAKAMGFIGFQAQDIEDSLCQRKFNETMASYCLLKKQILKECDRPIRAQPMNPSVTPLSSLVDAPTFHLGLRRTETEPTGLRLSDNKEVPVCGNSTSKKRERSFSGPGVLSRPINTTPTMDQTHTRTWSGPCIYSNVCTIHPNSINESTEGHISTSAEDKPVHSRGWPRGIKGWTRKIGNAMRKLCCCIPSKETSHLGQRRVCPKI
2C TCR on 2C CTL, sequence (A2KF29 whole entry): as the sequence (A2KF29 whole entry, looked up, tested part not stated) above
H-2 L^d on RENCA cells, naturally loaded (murine), sequence (P01897 25-362): as the sequence (P01897 25-362) above
SIY-loaded H-2 K^b on T2 K^b cells (murine), sequence (P01901 22-369): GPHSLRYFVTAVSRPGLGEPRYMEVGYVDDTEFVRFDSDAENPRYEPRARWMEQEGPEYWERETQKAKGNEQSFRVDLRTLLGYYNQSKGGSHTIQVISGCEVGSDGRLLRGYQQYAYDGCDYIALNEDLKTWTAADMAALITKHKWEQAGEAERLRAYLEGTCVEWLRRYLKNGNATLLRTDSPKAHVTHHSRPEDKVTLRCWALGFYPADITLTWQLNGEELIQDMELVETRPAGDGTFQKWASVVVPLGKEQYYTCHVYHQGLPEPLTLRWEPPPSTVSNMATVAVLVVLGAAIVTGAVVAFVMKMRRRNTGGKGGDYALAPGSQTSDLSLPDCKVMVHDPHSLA
unloaded H-2 L^d on RMA-S L^d cells (no peptide added) (murine), sequence (P01897 25-309): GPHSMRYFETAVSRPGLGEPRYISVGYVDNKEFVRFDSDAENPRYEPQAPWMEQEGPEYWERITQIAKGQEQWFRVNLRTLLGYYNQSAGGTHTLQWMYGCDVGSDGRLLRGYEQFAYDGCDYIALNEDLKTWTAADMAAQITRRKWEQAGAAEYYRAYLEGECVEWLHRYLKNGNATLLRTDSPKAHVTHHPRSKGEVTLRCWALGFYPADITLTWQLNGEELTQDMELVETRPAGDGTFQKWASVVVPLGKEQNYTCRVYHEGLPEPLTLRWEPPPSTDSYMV

Substance: 2C TCR on 2C CTL (from UniProt A2KF29)
- 2C CTL mediated lysis of peptide-loaded T2 cells (51Cr release), LD50 of the peptide [1]: 10 ng/mL
- 2C CTL mediated lysis of peptide-loaded T2 cells (51Cr release), LD50 of the peptide [2]: 100 ng/mL
- 2C CTL mediated lysis of peptide-loaded T2 cells (51Cr release), LD50 of the peptide [3]: 0.5 ng/mL and 1 ng/mL
- 2C CTL mediated lysis of p2Ca-loaded T2 L^d cells (51Cr release), LD50 of the peptide [4]: 0.5 ng/mL

Substance: mAb 30.5.7 (antibody)
- fold increase of mean channel fluorescence (cells at 27° C. against cells at 37° C.) [5]: 5 fold
- fold increase of serologically reactive H-2 L^d on γ-IFN treated cells over untreated cells [6]: 5 to 6 fold

Substance: soluble divalent 2C TCR/Ig (from UniProt A2KF29)
- MCF [7]: 36 MCF
- MCF [8]: 3000 MCF
- MCF [9]: 1 MCF
- MCF [10]: 1 MCF
- MCF [11]: 600 MCF
- concentration at which binding was detected [12]: < 1 nM
